Experimental data as given in patent US20100209422A1.

Experiments:
[1] = molecular target: protofibrillar (PF) form of Aβ42 (human); experiment: SPR (BIAcore), ratio of PF binding to LMW binding
[2] = molecular target: protofibrillar (PF) form of Aβ42 (human); experiment: SPR (BIAcore), antibody immobilized, PF Aβ42 injected
[3] = molecular target: low-molecular weight (LMW) form of Aβ42 (human); experiment: SPR (BIAcore), antibody immobilized, LMW Aβ42 injected
low-molecular weight (LMW) form of Aβ42 (human), sequence (peptide, as listed by the source): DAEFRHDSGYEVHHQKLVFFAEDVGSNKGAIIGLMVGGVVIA

protofibrillar (PF) form of Aβ42 (human), sequence (peptide, as listed by the source): as above

| Substance | Ratio (PF/LMW) [1] | BIACORE Binding Analysis PF [2] | BIACORE Binding Analysis LMW [3] |
| --- | --- | --- | --- |
| 3D6 anti-Aβ antibody | 0.9 | 403 | 425 |
| 6E10 (antibody) | 1.4 | 541 | 400 |
| 82E1 (antibody) | 1 | 68.4 | 69.9 |
| monoclonal antibody 4G8 | 1.5 | 340 | 229 |
